The supplement of paper PMC12042874
± gives the uncertainty stated by the source.

Assay: amyloid nucleation score (Sup35N fusion, yeast selection) (log enrichment); library NNK2; higher = more nucleation; inactive = no reads after selection
In short: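 Sup35N fusions to peptides of 20 random codons were expressed in psi-negative yeast, induced 24 hours with 100 μM copper sulfate, and grown 7 days at 30°C on medium lacking adenine and uracil. Input and output plasmid inserts were sequenced by Illumina. The nucleation score is the DiMSum log enrichment of output over input reads, centred on the mode score of non-aggregating sequences. Sequences with under 100 input reads were excluded.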

Row | Substance | amyloid nucleation score
1 | YRRLCWPWFRKLFEVYRDN | -0.554 ± 0.63
2 | IMWRTERINNYVDSV | -0.846 ± 0.45
3 | SNSYGGDTQRY | -0.517 ± 0.33
4 | KTYGGLLSLPVVLRMLEPRA | 0.319 ± 0.61
5 | PVAQTLAVTFNY | 1.62 ± 0.23
6 | WQNETRMACRWFRRMLSFCI | 1.42 ± 0.4
7 | QSLSTKRRSVFFAGHQARGK | -0.42 ± 0.64
8 | STRNSFPSDKAYLS | -0.605 ± 0.74
9 | TPFAHSGSWCNSERLVPRLV | 0.364 ± 0.33
10 | FRQRDKRVTEMTPAERGGQ | 2.79 ± 0.091
11 | VHEPAQV | 0.352 ± 0.35
12 | SGYVIHLVDDKALHTCDRNQ | 0.294 ± 0.18
13 | HSLLGPGPVPSYPQFSSPGR | inactive
14 | VVKFYWCIVQCCTWNGMKSH | 8.363 ± 0.067
15 | YYHYYFGFCDNM | 0.664 ± 0.33
16 | GAIIGIAGVPKGLSNSHSDG | -0.606 ± 1.1
17 | PALTIEIMSYGASQHGFSLV | 0.367 ± 0.28
18 | NQMCIATFHHMAYT | 2.87 ± 0.086
19 | IYRCIYRTPMLLGLYFNGPV | -0.791 ± 0.55
20 | CRGTQALSYSLS | -0.017 ± 0.76
21 | ECRRF | 2.78 ± 0.12
22 | RVGTLSWTRAFVFLGYGMVQ | -0.044 ± 0.48
23 | LNKNYWGL | -0.921 ± 0.39
24 | LWVVILGVGTSSNESYCKYV | -0.427 ± 0.45
25 | TLLTYMVLKCFQFVSEYLWK | 3.7 ± 0.07

Row | Substance | amyloid nucleation score
26 | RSHATFRSSSLIPGVEV | 0.409 ± 0.23
27 | VEGVFLISMPPWPFYRLPSR | 0.961 ± 0.81
28 | YQNVVCRDIQIGFWNLADSI | 5.824 ± 0.056
29 | YRLIDVYWS | -0.632 ± 1.1
30 | CKIEGWCTGCGSRQLRARAE | 1.09 ± 0.34
31 | VMSDGMYTGKAYSLVLDMRI | inactive
32 | PLCLSDNYMTIQSSSILNAH | -0.205 ± 0.41
33 | LFSMSL | -1.27 ± 1
34 | VYYTVVCGDDRRCIKMCKFC | 5.327 ± 0.032
35 | PLPGFRIMFLWRQNALPVQP | 0.196 ± 0.64
36 | NVVTGVASILWGQDHNKSLV | 0.641 ± 0.74
37 | LARYFAKKLYNFYFLAFTGW | 1.14 ± 0.29
38 | ELRISPPDNRLWDPQ | 0.183 ± 1
39 | HSLSWKCV | 0.346 ± 0.74
40 | MKRIRLGNQVRCEAANCRGR | 1.1 ± 0.24
41 | FHGAYIGASSVNDPSVSD | 5.322 ± 0.04
42 | MFVCYSRYIASEREPAACPI | inactive
43 | VILNYVIYL | 10.08 ± 0.071
44 | CGFIVKTAWGLVLATLGATY | 2.54 ± 0.11
45 | QSFNVCCWLGEMDVLYSSIT | 8.997 ± 0.038
46 | RLPARLGSS | 0.23 ± 0.25
47 | FYLNKDNLWNSNLGGSAHKC | -2.38 ± 1.1
48 | IVHWSLHFMRGKSAYYQYVV | inactive
49 | DVGSPWLNYSSFFIFWSTIS | -1.02 ± 1.1
50 | SFDFLSLLSDRCLVLDVSPN | 0.761 ± 0.46

Row | Substance | amyloid nucleation score
51 | IYFMFVVYDSIHQE | 1.32 ± 0.2
52 | NKATNKTDRVMKPSAKKDTE | -0.796 ± 0.39
53 | CSLMNNRVHFVWSHRRMSGT | 0.276 ± 1
54 | FFIWKVLDWHLNSRSYRWFG | -0.325 ± 0.76
55 | RYMGGIWKSIRTS | 0.061 ± 0.21
56 | TVWCWVDRTMGLEWTYLTA | 1.1 ± 0.23
57 | SRYLSVIYYHRSNTWLRDRE | inactive
58 | VLNDFFWEHLPMGHNVGLTL | -0.252 ± 0.55
59 | VYGLVL | 0.011 ± 0.45
60 | LFIDDVPVDSITYGIWARGC | -1.5 ± 1.1
61 | CWFHGLWIRGVDNSSVYWMD | -0.466 ± 0.65
62 | TSSLYISMMVLL | 4.07 ± 0.074
63 | QILPWGVSMEKL | -0.492 ± 0.41
64 | FNCHCSLSLVNHLASFTLSF | 1.8 ± 0.16
65 | LCWFSNRSRLEEVS | inactive
66 | ASMKGYV | 0.148 ± 0.5
67 | NFVSISMGNIYMSQLGRWTA | 8.33 ± 0.051
68 | LFKFDVPTNIKCYIRSSCSI | inactive
69 | CSPYVRSCTGYVEWGSIRTM | 0.06 ± 0.29
70 | SVSYSGDNH | -0.177 ± 1
71 | LDYRPCEDNDDVDVSEILHG | 0.224 ± 0.25
72 | IFAVGTTTASKCVWKIVEQE | 2.09 ± 0.11
73 | LDLSDHWACQIIGVL | 0.394 ± 0.43
74 | TCATTDGVR | 1.04 ± 0.21
75 | FSAVHAHQQNLLVVFYTCCA | 3.97 ± 0.08

Row | Substance | amyloid nucleation score
76 | QQHYLEEPDDESLVRGCRHW | -0.039 ± 0.54
77 | LGNRVRMSWNW | 0.807 ± 0.44
78 | IHKETGLEIVARRKVHFDGG | 0.524 ± 0.26
79 | VWTSIYDFSLWADYGQK | -1.58 ± 1.1
80 | RMFRFRRHSKHLEKLSSRFL | -0.222 ± 0.49
81 | VGPFSDH | -0.472 ± 0.79
82 | FECKVVILKCRLGYIFGANN | 1.26 ± 0.16
83 | SCSSCLL | -0.183 ± 1
84 | RRAWGFLVMRVGTDPMMTGI | 0.196 ± 0.37
85 | NAKCNSTGKTCQFGCQYP | 1.51 ± 0.39
86 | YKWIIESRMGALPKQLCRRA | -0.465 ± 0.42
87 | GHAHLCSMYVVSIRLHLSMV | 5.59 ± 0.081
88 | CLCQIHSRSYPFIL | 0.148 ± 1
89 | CRVALSVVYHTINEKQWYRV | -0.988 ± 0.28
90 | TVFWGTMVGPQRGVVGLESF | 0.593 ± 0.74
91 | SSPHWSK | -0.051 ± 0.37
92 | QGTQWFLLKVSAIVKQLRWT | -0.317 ± 0.79
93 | DSEGSA | inactive
94 | LTIDQHKVCLPN | inactive
95 | PKRLKSSYLD | -0.208 ± 0.37
96 | FCKVGFALLGVNQDVLYEMS | -0.714 ± 1
97 | YLLHNSLKFRVHHSL | -0.68 ± 0.39
98 | GYYGARFLVFKFMVRRWMMT | inactive
99 | LSVFVSGAPQIKLSNMVVKN | -0.348 ± 0.76
100 | MLSTTEVCVGPDRD | 3.89 ± 0.088

Row | Substance | amyloid nucleation score
101 | DLEVLSLGGINFFVVDTFMI | 0.964 ± 0.28
102 | LYIASSSLHCGLDVAW | -0.298 ± 0.49
103 | HFWCLRCDTIHDSFNYSVVQ | 7.373 ± 0.055
104 | IYHFNFIFNYLMGDPPYRAT | 7.778 ± 0.04
105 | RIKGSGGPNVLGWFRMVLCS | 0.284 ± 1.1
106 | ISCHLFLLALYGWNKCVCSV | 0.114 ± 0.62
107 | GTRYDT | 0.468 ± 0.32
108 | DRHYCQKGEWRKDEDVFPVE | 0.13 ± 1.1
109 | FEYYIDPRK | -1.27 ± 0.61
110 | WVVNRTQGYGRLSSGDEEVP | 1.35 ± 0.37
111 | KHYAL | 0.169 ± 0.8
112 | YLKPLAFITSILHAMTRPWH | -1.28 ± 0.75
113 | NFVRRSKSDKPCCYKTHSST | -0.747 ± 0.41
114 | EFWANRYGNHPLLGIHHCSP | 0.135 ± 0.77
115 | SIGTGRAESL | 0.359 ± 0.57
116 | TMCDSIVIEYGPCIFDSSSS | 4.74 ± 0.056
117 | GSFENSTRTYVSIIRR | 4.73 ± 0.045
118 | KLDTLRFCVGAHLGTPTLCW | 0.499 ± 0.34
119 | GEAFRKDPLRCYMFQGIIEQ | 2.1 ± 0.14
120 | HLWGTKFMAFVARFV | -0.12 ± 0.79
121 | NRQRRPRLVDKYGASRGVVY | 3.31 ± 0.11
122 | YRVYLQRHSGA | 3.78 ± 0.069
123 | RMLYVFSFTHNKVVIFARTE | -1.11 ± 0.76
124 | TSSLDEEALS | -0.648 ± 0.55
125 | CQDSALALGDVFVPDKGVVR | 0.36 ± 0.8

Row | Substance | amyloid nucleation score
126 | ALKFHGSNDSRFLI | -0.756 ± 1
127 | WWYPSGLDCFVVSFFRCHCV | -0.107 ± 1
128 | SFFFPWCVTGLRVSHTTAKF | -0.237 ± 0.63
129 | SVKCWRWFGA | 1.73 ± 0.27
130 | YYRYRHLMHLIKWME | 0.216 ± 0.53
131 | VNCIASSFSLPRRTLSNSMD | inactive
132 | SGSMKCPSYRYYCPQNIFCT | 6.43 ± 0.08
133 | GVTLNSCFFNRVYLTLFGIN | 6.946 ± 0.031
134 | SRVIWHDSQLFVVFSSTAYK | 4.04 ± 0.041
135 | VEVSECVHVIMYFRISYNKL | 3.4 ± 0.15
136 | RNSSL | 0.495 ± 0.48
137 | QFNFCKLAGQPLMFEFIDGV | 5.58 ± 0.059
138 | SRIIMSFTSGLCDNHSKLKC | 1.68 ± 0.19
139 | YLTLTYPLLCLALNNLSVVL | 2.38 ± 0.15
140 | LAAVLVHAWFVKRLRMPNHH | 0.93 ± 0.44
141 | SMQKG | inactive
142 | LILRSVSNYAITIMFAFDTR | 4.39 ± 0.096
143 | SVAASGFHVV | -1.57 ± 0.76
144 | GLNISPRMYCF | 0.002 ± 0.28
145 | FVVIWAMDIDVLWSMGGKID | 5.46 ± 0.061
146 | NLCTVVCSDTAVLWTALPRL | 9.478 ± 0.062
147 | SPRLAGVWVH | -0.669 ± 0.63
148 | YFLRYSS | inactive
149 | VWELDRVVR | 0.783 ± 0.53
150 | GWAKPMGFNLILR | 0.265 ± 0.31

Row | Substance | amyloid nucleation score
151 | VGSFSTVGCR | 0.003 ± 0.36
152 | KLHVGNCSFSKPSPAQAGSL | 0.34 ± 0.29
153 | VTLQPFCSARSWLEMNVKFF | 4.44 ± 0.066
154 | ASAYSPASRRSTDMADALV | 0.496 ± 0.31
155 | CCAGWYSGEEGRMGSRL | 0.511 ± 0.18
156 | HWKVENRLNSMEWKSMGGQN | 3.97 ± 0.053
157 | MHLCADPAGFWDWN | -0.446 ± 1
158 | SYDGERVI | 0.444 ± 0.28
159 | LLYQKKDEWLGASYSLQKLS | -0.686 ± 0.37
160 | AMFTSSMIRTLGCCSGSQTA | 4.14 ± 0.13
161 | HSDMFRKIQVLILSVERQNE | inactive
162 | NRTSYQNLIDNATTVSIMF | 1.55 ± 0.22
163 | ESADQWAVTMVGRHFYLVLR | 0.294 ± 1.1
164 | PIRVSSSVVSWYYFGNSRIW | -1.09 ± 0.62
165 | INPSWVSCVHFM | 0.062 ± 0.74
166 | GARYTIWECF | inactive
167 | KSRFML | 0.627 ± 0.57
168 | KEPYHNYI | 0.179 ± 0.56
169 | EWCQFIR | -0.199 ± 0.19
170 | CMCENTYNRRIKVRYEWLKW | -0.619 ± 0.21
171 | IYQPCCCV | 0.76 ± 0.51
172 | EVVLSAILQHYMSFVSGDDL | -0.201 ± 0.41
173 | WAKCRLTIMTKWSLLCGGLG | 1.43 ± 0.34
